According to patent publication US20260193342A1 (ZOETIS SERVICES, published 2026):

Experiments:
[1] = biological target: IL-31 (target protein of mAb1); test: cell-based or functional assay
[2] = biological target: T1, canine FcRn complex (FcRn-α subunit and β-microglobulin) (canine, UniProt A0A8I3PFR8 25-347, biotin on the BAP tag by BirA (Example 5 only)); test: SPR (Biacore), FcRn amine-coupled to CM5, IgG flowed, pH 6, 15 C
[3] = biological target: T1, canine FcRn complex (FcRn-α subunit and …); test: SPR (Biacore), biotinylated FcRn on SA chip, IgG flowed, pH 6, 15 C
[4] = biological target: T1, canine FcRn complex (FcRn-α subunit and …); test: SPR (Biacore), biotinylated FcRn on SA chip, IgG flowed, pH 7.4, 15 C
[5] = biological target: IL-31 (target protein of mAb1); test: SPR (Biacore T200), target amine-coupled to CM5, antibody flowed, 15 C, 1:1 model
[6] = biological target: T1, canine FcRn complex (FcRn-α subunit and …); test: SPR (Biacore), FcRn amine-coupled to CM5, IgG flowed, pH 7.2, 15 C
[7] = biological target: T1, canine FcRn complex (FcRn-α subunit and …); test: SPR (Biacore), biotinylated FcRn on SA chip, IgG flowed, pH 6, 15 C; remark: listed apart in the source
[8] = biological target: NGF (target protein of mAb2); test: cell-based or functional assay
[9] = biological target: canine FcRn complex (FcRn-α subunit and β-microglobulin) (canine); test: SPR (Biacore), FcRn amine-coupled to CM5, IgG flowed, pH 6, 15 C
[10] = biological target: canine FcRn complex (FcRn-α subunit and β-microglobulin) (canine); test: SPR (Biacore), FcRn amine-coupled to CM5, IgG flowed, pH 7.2, 15 C
[11] = biological target: NGF (target protein of mAb2); test: SPR (Biacore T200), target amine-coupled to CM5, antibody flowed, 15 C, 1:1 model

T1 sequence (A0A8I3PFR8 entry or part of it, one chain of several): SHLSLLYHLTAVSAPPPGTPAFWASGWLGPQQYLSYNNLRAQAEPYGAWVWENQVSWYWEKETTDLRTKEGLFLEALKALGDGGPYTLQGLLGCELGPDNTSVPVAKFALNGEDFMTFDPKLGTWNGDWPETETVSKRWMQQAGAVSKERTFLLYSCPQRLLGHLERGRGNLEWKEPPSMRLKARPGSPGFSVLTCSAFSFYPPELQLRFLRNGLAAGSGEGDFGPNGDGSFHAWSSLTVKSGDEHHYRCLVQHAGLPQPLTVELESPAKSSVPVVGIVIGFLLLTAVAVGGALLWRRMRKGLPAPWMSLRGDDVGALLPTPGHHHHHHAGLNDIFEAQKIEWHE

IC50 (cell based potency assay) [1] [nM] | Kd [2] [nM] | Kd [3] [nM] | Kd [4] [nM] | Kd [5] [nM] | Kd [6] [nM] | Kd [7] [nM] | IC50 (cell based potency assay) [8] [nM] | Kd [9] [nM] | Kd [10] [nM] | Kd [11] [nM] | Binder
1.1 | 15 to 24.4 | 19.9 | 18700 | 0.483 | – | – | – | – | – | – | mAb1, caninized anti-IL31 antibody 34D03, canine IgGB (65), WT (antibody, VH/VL: the caninized 34D03 entries of the listing; also called mAb1 WT; mAb1 Wild-Type) heavy: EVQLVESGGDLVKPGGSLRLSCVASGFTFSNYGMSWVRQAPGKGLQWVATISYGGSYTYYPDNIKGRFTISRDNAKNTLYLQMNSLRAEDTAMYYCVRGYGYDTMDYWGQGTLVTVSSASTTAPSVFPLAPSCGSTSGSTVALACLVSGYFPEPVTVSWNSGSLTSGVHTFPSVLQSSGLYSLSSMVTVPSSRWPSETFTCNVAHPASKTKVDKPVPKRENGRVPRPPDCPKCPAPEMLGGPSVFIFPPKPKDTLLIARTPEVTCVVVDLDPEDPEVQISWFVDGKQMQTAKTQPREEQFNGTYRVVSVLPIGHQDWLKGKQFTCKVNNKALPSPIERTISKARGQAHQPSVYVLPPSREELSKNTVSLTCLIKDFFPPDIDVEWQSNGQQEPESKYRTTPPQLDEDGSYFLYSKLSVDKSRWQRGDTFICAVMHEALHNHYTQESLSHSPGK VL: EIVMTQSPASLSLSQEEKVTITCKASQSVSFAGTGLMHWYQQKPGQAPKLLIYRASNLEAGVPSRFSGSGSGTDFSFTISSLEPEDVAVYYCQQSREYPWTFGQGTKLEIK
0.99 | 0.7 to 1.3 | – | – | 0.373 | 5000 | 6.45 | – | – | – | – | mAb1, caninized anti-IL31 antibody 34D03, canine IgGB (65), N434H (antibody, VH/VL: the caninized 34D03 entries of the listing; also called mAb1 N434H; mAb1 N434H Mutant) heavy: EVQLVESGGDLVKPGGSLRLSCVASGFTFSNYGMSWVRQAPGKGLQWVATISYGGSYTYYPDNIKGRFTISRDNAKNTLYLQMNSLRAEDTAMYYCVRGYGYDTMDYWGQGTLVTVSSASTTAPSVFPLAPSCGSTSGSTVALACLVSGYFPEPVTVSWNSGSLTSGVHTFPSVLQSSGLYSLSSMVTVPSSRWPSETFTCNVAHPASKTKVDKPVPKRENGRVPRPPDCPKCPAPEMLGGPSVFIFPPKPKDTLLIARTPEVTCVVVDLDPEDPEVQISWFVDGKQMQTAKTQPREEQFNGTYRVVSVLPIGHQDWLKGKQFTCKVNNKALPSPIERTISKARGQAHQPSVYVLPPSREELSKNTVSLTCLIKDFFPPDIDVEWQSNGQQEPESKYRTTPPQLDEDGSYFLYSKLSVDKSRWQRGDTFICAVMHEALHHHYTQESLSHSPGK VL: EIVMTQSPASLSLSQEEKVTITCKASQSVSFAGTGLMHWYQQKPGQAPKLLIYRASNLEAGVPSRFSGSGSGTDFSFTISSLEPEDVAVYYCQQSREYPWTFGQGTKLEIK
– | – | – | – | – | – | – | 20.9 | 7.3 | 1300 | 0.0555 | mAb2 of Tables 1-3, caninized anti-NGF antibody, canine IgGB (65), N434H (antibody, part only; not given: Anti-NGF heavy and light variable domains, part only) heavy, part: ASTTAPSVFPLAPSCGSTSGSTVALACLVSGYFPEPVTVSWNSGSLTSGVHTFPSVLQSSGLYSLSSMVTVPSSRWPSETFTCNVAHPASKTKVDKPVPKRENGRVPRPPDCPKCPAPEMLGGPSVFIFPPKPKDTLLIARTPEVTCVVVDLDPEDPEVQISWFVDGKQMQTAKTQPREEQFNGTYRVVSVLPIGHQDWLKGKQFTCKVNNKALPSPIERTISKARGQAHQPSVYVLPPSREELSKNTVSLTCLIKDFFPPDIDVEWQSNGQQEPESKYRTTPPQLDEDGSYFLYSKLSVDKSRWQRGDTFICAVMHEALHHHYTQESLSHSPGK
